Data reported in patent US20230099646A1 (published 2023).

Molecular target: T1, cynomolgus monkey CD19 (cCD19) (cynomolgus monkey)
T1 construct: Expressed on transiently transfected 293 cells
T1 chain: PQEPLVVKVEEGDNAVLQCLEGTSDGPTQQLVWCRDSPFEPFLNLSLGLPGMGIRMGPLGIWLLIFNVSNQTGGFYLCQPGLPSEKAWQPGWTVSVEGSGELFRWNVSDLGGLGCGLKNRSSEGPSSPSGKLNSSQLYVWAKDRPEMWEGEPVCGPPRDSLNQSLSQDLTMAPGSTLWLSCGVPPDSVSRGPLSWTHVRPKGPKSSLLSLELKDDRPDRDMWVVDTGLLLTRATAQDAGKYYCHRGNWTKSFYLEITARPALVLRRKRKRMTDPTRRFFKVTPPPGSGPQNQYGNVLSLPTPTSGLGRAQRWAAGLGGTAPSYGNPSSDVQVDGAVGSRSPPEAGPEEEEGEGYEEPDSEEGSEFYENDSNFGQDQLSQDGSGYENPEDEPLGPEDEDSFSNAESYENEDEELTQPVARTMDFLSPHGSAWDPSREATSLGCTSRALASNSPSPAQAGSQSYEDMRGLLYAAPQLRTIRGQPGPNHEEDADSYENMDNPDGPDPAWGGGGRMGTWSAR
Test: flow cytometry on transfected 293 cells
Procedure: In brief, first, the expression of CD19 protein was identified.
Binding to GFP-positive cells was analyzed on the basis of mean fluorescence intensity (MFI).

binding result: no binding
B1: CD19_12.18 antibody (scFv, V domains shown)
VH: AVTLDESGGGLQTPGGALSLVCKASGFTFSSYDMGWVRQAPGKGLEFVAGIDDDGRYTSYGSAVDGRATISRDNGQSTVRLQLNNLRAEDTATYYCTRGNAGWIDAWGHGTEVIVSS
VL: LTQPSSVSANPGETVKITCSGGYSSYYGWYQQKSPGSAPVTLIYESNKRPSDIPSRFSGSASGSTATLTITGVQVEDEAVYYCGGWDSTHAGIFGAGTTLTVLG
notes: Chicken-derived antibody, tested as an Fc fusion (Anti-CD19 scFv-Fc) made in FreeStyle 293F cells; also called CD19_1218-Fc; Anti-CD19 scFv-Fc
